Assay results as given in the nanobody polyreactivity screen of Harvey et al. (2022).

Assay: yeast display, Sf9 membrane polyspecificity reagent, FACS + sequencing; frameworks hold sequencing errors
How it was run: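 A nanobody's polyreactivity label depends on the gate it was sorted from. Yeast display cells were stained with 10% biotinylated, detergent-solubilized Sf9 membrane reagent for 1 hour at 4 °C, enriched on streptavidin microbeads and sorted by FACS. The low and high (top ~1%) gates were set on anti-HA fluorescence for expression and streptavidin fluorescence for reagent binding.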

| Sequence | polyreactivity (PSR sort gate) |
| --- | --- |
| QVQLVESGGGLVQAGGSLRLSCAASGSIFGSYAMGWYRQAPGKEREFVAGIDQSGSSTYYADSVKGRFTISRDNAKNTVYLQMNSLKPEDTAVYYCNAVWYFYSTYRKYYYWGQGTQVTVSS | high polyreactivity |
| QVQLVESGGGLVQAGGILRLSCAASGSIFVKYTMGWYRQAPGKERELVAAISFRGGSTYYADSVKGRFTISRDNAKNTVYLQMNSLKPEDTAVYYCNADGGWWPEYYWGQGTQVTVSS | low polyreactivity |
| QVQLVESGGGLVQAGGSLRLSCAASGSIFKRNAMGWYRQAPGKERELVASISSGGSTHYADSVKGRFTISRDNAKNTVYLQMNSLKPEDTAVYYCAADSSWYVLYGSYYRSGLDYWGQGTQVTVSS | low polyreactivity |
| LVQLQESGGGLVQEGGSLRMSCAASGTISPGGYMGWYRQAPGKERELVASINVGGSTNYADSVKGRFTISRDNAKNTVYLQMNSLKPEDNAVYYCAVWGRNRLQLSYWGQGTQVTVSS | low polyreactivity |
| QVQLVESGGGLVQAGGSLRLSCAASGFTLATYAMGWYRQAPGKERELVAAITRSGGSTYYADSVKGRFTISRDNAKNTVYLQMNSLKPEDTAVYYCNAREVRYEYNYWGQGTQVTVSS | low polyreactivity |
| QVQLVESGGGLVQAGGSLRLSCAASGITFGWYAMGWYRQAPGKERELVAAISGRGGRTYYADSVKGRFKISRDNAKNTVYLQMNSLKPEDTAVYYCAARARRWSYITGSYVLIEYEYWGQGTQVTVSS | high polyreactivity |
| QVQHVESRGGLVQAGGSLRLICAASGFTFSSYAMGWYRQAPGKERELVASISWRGGIPYYADSVKGRFTISRDNAKNTVDLQMISLKPEDTAVYYCAAVPSYHSTSPFYYWGQGTQVTVSS | high polyreactivity |
| QVQLVESCGGLVQAGGSLRLSCAASGFIFWCYTMGWYIQAPGKERELVAAITGSGGSTYYADSVKGRFTISRDNAKNTVNFQMNSLKPEDTAVYYCNAVSAYKWEYYYWGQGTLVTVSS | high polyreactivity |
| QVQLVESGGGLVQAGGSLRLSCAASGSIFKYNDMGWYRQAPGKERELVAAIRLGGGSTSYADSVKGRFTISRDNAKNTVYLQMNSLKPEDTAVYYCAAEINVGWLGSYDYWGQGTQVTVSS | low polyreactivity |
| QVQLVESGGGLVQAGGSLRLSCAASGTTFAWNTMGWYRQAPGKERELVARISRRSVSTYYADSVKGRFTISRDNAKNTVYLQMNSLKPEDTAVYYCAADYFSYQKYDYWGQGTQVTVSS | low polyreactivity |
| QVQLVESGGGLVQAGGSLRLSCAASGSTIGRNAMGWDRQAPGNERELVASITDSSGSPNYADSVKGRFTISRDNAKNSVYLQMHSLKPEDTAVYYCATGYYYYTRYRYHTKYYSWGQGTQVTVSS | high polyreactivity |
| QVQLVESGGGLVQAGGSLRLSCAASGSTFGWYVMGWYRQAPGTERELVASITGSGGSTYYADSVKGRFTISRDNAKNTVYLQMNSLKPVDSAVYYCGADTGWYDDWTHDYWGQGTQVTVSS | low polyreactivity |
| QVQLVESGGGLVQAGGSLRLSCAASGFIFYFYAMGWYRQATGKEMELVAAISDGVSTYYADSVKGRFTISRDNAKNTVYLQMNCLKPEDTAVYYCAVSRGDDPEFDYWGQGTQVTVSS | low polyreactivity |
| QVQLVESAGGLVQAGGSHRLSCAASGNIFYYYRMGWYRQEPGKESEFVAAISTSGGNTYYADSVKGRFTISRDNAKNTVYLQINSLKPEDTAVYYCAADDWPWGDAGVDYWGQGTQVTVSS | low polyreactivity |
| QVQLVESGGGLVQAGGSLRLSCAASGRIFNSYAMGWSRQAPGKERELVAAISSGGSTYYADSVKGRFTISRDNAKNTVYLQMKRLKPEDTAVYYCAARIWNGRGRKLGYGYDYWGQGTQVTVSS | low polyreactivity |
| QVQLVESGGGLVQAGGSLRLSCAASGGTFAGYAMGWYRLAPGKERELVAAISWSSGRTYYADSVKGRFTISRDNAKNTVYLQMNSLKPEDTAVYYCNVLRYRGYDYWGQGTQVTVSS | high polyreactivity |
| QVQLVESGGGLVQAGGSLRLTCAASGLTFEYYAMGWYRQAPGKERELVARISKSGVGTNYADSVKGRFTISRDHAKNTVYLQMNSLKPEDNAVYSCAARKYHYGYGYWGQGTQVTVSS | high polyreactivity |
